In publication PMC3969726:
Values belong to the substance of their own block, whether it stands above or below them.

What was measured:
[1] = biological target: Bfr ArdA (ArdA protein from Bacteroides fragilis NCTC 9343, Orf BF1222) (Bacteroides fragilis NCTC 9343); assay: SEC; Biosep-SEC-S3000 column; 20 mM Tris-HCl, 20 mM MES, 200 mM NaCl, 10 mM MgCl2, 0.1 mM EDTA, 7 mM 2-mercaptoethanol, pH 6.5; 25 °C; apparent molecular mass against injected monomer concentration, fitted to a monomer-dimer equilibrium; apparent constants; dimer to monomers
[2] = biological target: Ocr (Escherichia phage T7) (UniProt P03775); conditions: cited from earlier work
[3] = biological target: Mu50 ArdA (ArdA protein from Staphylococcus aureus Mu50, Orf SAV0405) (Staphylococcus aureus Mu50); assay: SEC; Biosep-SEC-S3000 column; 20 mM Tris-HCl, 20 mM MES, 200 mM NaCl, 10 mM MgCl2, 0.1 mM EDTA, 7 mM 2-mercaptoethanol, pH 6.5; 25 °C; apparent molecular mass against injected monomer concentration, fitted to a monomer-dimer equilibrium; apparent constants; dimer to monomers
[4] = biological target: Orf18 ArdA protein expressed by the conjugative transposon Tn916 (conjugative transposon Tn916); assay: as above

Kd [1]: 360 nM
Substance: Bfr ArdA (ArdA protein from Bacteroides fragilis NCTC 9343, Orf BF1222) (natural protein)

Substance: EcoKI MTase (from UniProt P08957)
Kd [2]: 0.05 nM

Kd [3]: 3180 nM
Substance: Mu50 ArdA (ArdA protein from Staphylococcus aureus Mu50, Orf SAV0405) (natural protein)

Substance: Orf18 ArdA protein expressed by the conjugative transposon Tn916 (natural protein)
Kd [4]: 2200 nM
